Results: patent US20200399364A1 (PHANES THERAPEUTICS, published 2020)
Numbering of substitutions follows the chain as printed.

B1: humanized anti-CLDN18.2 mAb 2-C3-H1L1 (antibody, V domains shown)
VH: QVTLRESGPALVKPTQTLTLTCTASGFTFSSYGMSWVRQPPGKALEWVATISGGGSYTYYNPSLKDRFTISRDISANQLVLKVTNMDPADTATYFCARQSRGNAMDYWGQGTTVTVSS
VL: DIQMTQSPSTLSASVGDRVTITCKSSQSLLNSGNQKNYLTWYQQKPGKAPKLLIYWASTRESGVPSRFSGSGSGTAFTLTISSLQPDDFATYYCQNDYSYPLTFGGGTKVEIK
notes: Humanized VH and VL fused to the constant regions of human IgG1 heavy chain and kappa light chain
B2: humanized anti-CLDN18.2 mAb 2-C3-H1L2 (antibody, V domains shown)
VH: B1 VH
VL: B1 VL with A76E
notes: as for B1
B3: humanized anti-CLDN18.2 mAb 2-C3-H2L1 (antibody, V domains shown)
VH: B1 VH with A24F, V37I, V48L, N61L, P62D, A76K, L79V, K82T
VL: B1 VL
notes: as for B1
B4: humanized anti-CLDN18.2 mAb 2-C3-H2L2 (antibody, V domains shown)
VH: B1 VH with A24F, V37I, V48L, N61L, P62D, A76K, L79V, K82T
VL: B1 VL with A76E
notes: as for B1
B5: humanized anti-CLDN18.2 mAb 5-E22-H1L1 (antibody, V domains shown)
VH: QVQLVQSGVEVKKPGASVKVSCKASGYTITDNYMHWVRQAPGQGLEWIGEIYPGSGNTYFNEKFKNRATLTADKSTTTAYMELKSLQFDDTAVYFCARGFPYYAMDYWGQGTTVTVSS
VL: EIVMTQSPATLSLSPGERATLSCHARQNINVWLSWYQQKPGQAPRLLIYKASNLHTGVPARFSGSGSGTDFTLTISSLEPEDFAVYYCQQGQNYPLTFGGGTKVEIK
notes: as for B1
B6: humanized anti-CLDN18.2 mAb 5-E22-H1L2 (antibody, V domains shown)
VH: B5 VH
VL: B5 VL with M4L, V58I
notes: as for B1
B7: humanized anti-CLDN18.2 mAb 5-E22-H3L1 (antibody, V domains shown)
VH: B5 VH with V9A, F60Y, N61A, T76I, T77S, K84S, S85R, Q87R, F88S, T113L
VL: B5 VL
notes: as for B1
B8: humanized anti-CLDN18.2 mAb 5-E22-H3L2 (antibody, V domains shown)
VH: B5 VH with V9A, F60Y, N61A, T76I, T77S, K84S, S85R, Q87R, F88S, T113L
VL: B5 VL with M4L, V58I
notes: as for B1
B9: humanized anti-CLDN18.2 mAb 5-E22-H1L3 (antibody, V domains shown)
VH: B5 VH
VL: DIVMTQSPLSLPVTPGEPASISCHARQNINVWLSWYLQKPGQSPQLLIYKASNLHTGVPDRFSGSGSGTDFTLKISRVEAEDVGVYYCQQGQNYPLTFGQGTKVEIK
notes: as for B1
B10: humanized anti-CLDN18.2 mAb 5-E22-H3L3 (antibody, V domains shown)
VH: B5 VH with V9A, F60Y, N61A, T76I, T77S, K84S, S85R, Q87R, F88S, T113L
VL: B9 VL
notes: as for B1
B11: humanized anti-CLDN18.2 mAb 6-J11-H1L1 (antibody, V domains shown)
VH: EVQLVESGGGLVQPGGSLRLSCAASGFIFSSFGMHWVRQAPGKGLEWVAYISSGRSTMYYADSVKGRFTISRDNSKNTLYLQMNSLTAEDTAVYYCARGGFYGNSLDYWGQGTLVTVSS
VL: B1 VL with T10S, Q27L, A76D, D87E, Y93S, D97A, G106Q
notes: as for B1
B12: humanized anti-CLDN18.2 mAb 6-J11-H2L1 (antibody, V domains shown)
VH: B11 VH with T87R, A88S
VL: B1 VL with T10S, Q27L, A76D, D87E, Y93S, D97A, G106Q
notes: as for B1

What follows are binders tested against T1, human claudin 18.2 (CLDN18.2) (human) (assay: FACS on HEK293-CLDN18.2 stable pool, FITC-based detection).
T1 construct: also called claudin 18 variant 2; claudin-18a2.1
T1 sequence (chain, as listed by the source limits assumed): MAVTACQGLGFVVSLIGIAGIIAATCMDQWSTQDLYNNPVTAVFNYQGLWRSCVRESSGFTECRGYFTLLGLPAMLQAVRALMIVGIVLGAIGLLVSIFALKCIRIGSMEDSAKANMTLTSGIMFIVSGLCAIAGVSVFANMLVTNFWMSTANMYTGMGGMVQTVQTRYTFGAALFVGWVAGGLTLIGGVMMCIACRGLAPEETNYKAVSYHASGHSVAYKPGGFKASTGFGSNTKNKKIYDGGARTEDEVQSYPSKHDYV

B1 and B2 are within 1.5-fold of each other in EC50: 9.8 nM for the first, 9.1 nM for the second.

B3 and B4 are within 1.5-fold of each other in EC50: 8.8 nM for the first, 8 nM for the second.

Going from B5 to B6, the EC50 rises from 59 nM to 259 nM (4.4-fold).

Compared with B7, B8 is 1.6-fold higher in EC50: 12.1 nM for the first, 19.4 nM for the second.

First: B9
Second: B10
The EC50 of the first is 4.1-fold higher: 61 nM for the first, 14.7 nM for the second.

B11 and B12 are within 1.5-fold of each other in EC50: 11.2 nM for the first, 11.4 nM for the second.
